This is an account of results in PMC12661439.

Assay [1] addresses HaloTag-AtCRY2(R439L) (Arabidopsis thaliana). The assay can be described thus: photon counting histogram (PCH) analysis (fluorescence fluctuation spectroscopy); light state: the same living HEK293T cells measured at once after 5 min of blue light (about 6 mW/cm^2 at the sample plane, 450-490 nm), one 30 s measurement a cell; HaloTag-JF646 fusions; brightness relative to the monomeric standard, corrected for 70% labelling; oligomer percent from a monomer-dimer (VfAuLOV) or monomer-tetramer (AtCRY2) model.

Assay [2] has the same target. The assay can be described thus: photon counting histogram (PCH) analysis (fluorescence fluctuation spectroscopy); dark state; HaloTag fusions labelled with 200 nM JF646 in living HEK293T cells, UBC promoter, protomer about 50-1,700 nM; single-point measurement of 30 s, 20 kHz binning, 15 ns dead time, ambient temperature (22-23°C); brightness relative to the monomeric HaloTag standard and corrected for 70% labelling; population average; oligomer percent from a monomer-dimer (VfAuLOV) or monomer-tetramer (AtCRY2) model.

The target of assay [3] is HaloTag-bZip-VfAuLOV: VfAuLOV with the basic residues and leucine zipper domain of Vaucheria frigida Aureochrome1, fused to HaloTag (Vaucheria frigida). The assay can be described thus: photon counting histogram (PCH) analysis (fluorescence fluctuation spectroscopy); light state: the same living HEK293T cells measured at once after 5 min of blue light (about 6 mW/cm^2 at the sample plane, 450-490 nm), one 30 s measurement a cell; HaloTag-JF646 fusions; brightness relative to the monomeric standard, corrected for 70% labelling; oligomer percent from a monomer-dimer (VfAuLOV) or monomer-tetramer (AtCRY2) model.

Assay [4] has the same target. In words: photon counting histogram (PCH) analysis (fluorescence fluctuation spectroscopy); dissociation kinetics in living HEK293T cells: relative brightness measured at times after a 5-min exposure to blue light was turned off, each measurement 30 s; averaged curves fitted with a single-exponential decay; half-life = ln2 x lifetime.
Assay [5] has the same target. The assay can be described thus: photon counting histogram (PCH) analysis (fluorescence fluctuation spectroscopy); dark state; HaloTag fusions labelled with 200 nM JF646 in living HEK293T cells, UBC promoter, protomer about 50-1,700 nM; single-point measurement of 30 s, 20 kHz binning, 15 ns dead time, ambient temperature (22-23°C); brightness relative to the monomeric HaloTag standard and corrected for 70% labelling; population average; oligomer percent from a monomer-dimer (VfAuLOV) or monomer-tetramer (AtCRY2) model.

The target of assay [6] is HaloTag-HsCRY2: human CRY2 photolyase homology region fused to HaloTag (human). In words: photon counting histogram (PCH) analysis (fluorescence fluctuation spectroscopy); light state: the same living HEK293T cells measured at once after 5 min of blue light (about 6 mW/cm^2 at the sample plane, 450-490 nm), one 30 s measurement a cell; HaloTag-JF646 fusions; brightness relative to the monomeric standard, corrected for 70% labelling; oligomer percent from a monomer-dimer (VfAuLOV) or monomer-tetramer (AtCRY2) model.

For assay [7] the target is unchanged. In words: photon counting histogram (PCH) analysis (fluorescence fluctuation spectroscopy); dark state; HaloTag fusions labelled with 200 nM JF646 in living HEK293T cells, UBC promoter, protomer about 50-1,700 nM; single-point measurement of 30 s, 20 kHz binning, 15 ns dead time, ambient temperature (22-23°C); brightness relative to the monomeric HaloTag standard and corrected for 70% labelling; population average; oligomer percent from a monomer-dimer (VfAuLOV) or monomer-tetramer (AtCRY2) model.

The target in assay [8] is HaloTag-VfAuLOV: light-oxygen-voltage (LOV) domain of Vaucheria frigida Aurochrome1 fused to HaloTag (Vaucheria frigida). In words: photon counting histogram (PCH) analysis (fluorescence fluctuation spectroscopy); light state: the same living HEK293T cells measured at once after 5 min of blue light (about 6 mW/cm^2 at the sample plane, 450-490 nm), one 30 s measurement a cell; HaloTag-JF646 fusions; brightness relative to the monomeric standard, corrected for 70% labelling; oligomer percent from a monomer-dimer (VfAuLOV) or monomer-tetramer (AtCRY2) model.

Assay [9] shares this target. The assay can be described thus: photon counting histogram (PCH) analysis (fluorescence fluctuation spectroscopy); dissociation kinetics in living HEK293T cells: relative brightness measured at times after a 5-min exposure to blue light was turned off, each measurement 30 s; averaged curves fitted with a single-exponential decay; half-life = ln2 x lifetime.
For assay [10] the target is unchanged. The assay can be described thus: photon counting histogram (PCH) analysis (fluorescence fluctuation spectroscopy); dark state; HaloTag fusions labelled with 200 nM JF646 in living HEK293T cells, UBC promoter, protomer about 50-1,700 nM; single-point measurement of 30 s, 20 kHz binning, 15 ns dead time, ambient temperature (22-23°C); brightness relative to the monomeric HaloTag standard and corrected for 70% labelling; population average; oligomer percent from a monomer-dimer (VfAuLOV) or monomer-tetramer (AtCRY2) model.

The target in assay [11] is HaloTag-AtCRY2(D387A) (Arabidopsis thaliana). In words: photon counting histogram (PCH) analysis (fluorescence fluctuation spectroscopy); light state: the same living HEK293T cells measured at once after 5 min of blue light (about 6 mW/cm^2 at the sample plane, 450-490 nm), one 30 s measurement a cell; HaloTag-JF646 fusions; brightness relative to the monomeric standard, corrected for 70% labelling; oligomer percent from a monomer-dimer (VfAuLOV) or monomer-tetramer (AtCRY2) model.

The target is the same in assay [12]. The assay can be described thus: photon counting histogram (PCH) analysis (fluorescence fluctuation spectroscopy); dark state; HaloTag fusions labelled with 200 nM JF646 in living HEK293T cells, UBC promoter, protomer about 50-1,700 nM; single-point measurement of 30 s, 20 kHz binning, 15 ns dead time, ambient temperature (22-23°C); brightness relative to the monomeric HaloTag standard and corrected for 70% labelling; population average; oligomer percent from a monomer-dimer (VfAuLOV) or monomer-tetramer (AtCRY2) model.

The target in assay [13] is HaloTag-AtCRY2: photolyase homology region of cryptochrome 2 from Arabidopsis thaliana fused to HaloTag (Arabidopsis thaliana). In words: photon counting histogram (PCH) analysis (fluorescence fluctuation spectroscopy); light state: the same living HEK293T cells measured at once after 5 min of blue light (about 6 mW/cm^2 at the sample plane, 450-490 nm), one 30 s measurement a cell; HaloTag-JF646 fusions; brightness relative to the monomeric standard, corrected for 70% labelling; oligomer percent from a monomer-dimer (VfAuLOV) or monomer-tetramer (AtCRY2) model.

The target is the same in assay [14]. The assay can be described thus: photon counting histogram (PCH) analysis (fluorescence fluctuation spectroscopy); dissociation kinetics in living HEK293T cells: relative brightness measured at times after a 5-min exposure to blue light was turned off, each measurement 30 s; averaged curves fitted with a single-exponential decay; half-life = ln2 x lifetime.
The target is the same in assay [15]. In words: photon counting histogram (PCH) analysis (fluorescence fluctuation spectroscopy); dark state; HaloTag fusions labelled with 200 nM JF646 in living HEK293T cells, UBC promoter, protomer about 50-1,700 nM; single-point measurement of 30 s, 20 kHz binning, 15 ns dead time, ambient temperature (22-23°C); brightness relative to the monomeric HaloTag standard and corrected for 70% labelling; population average; oligomer percent from a monomer-dimer (VfAuLOV) or monomer-tetramer (AtCRY2) model.

Assay [16] addresses HaloTag-AtCRY2(W374A) (Arabidopsis thaliana). In words: photon counting histogram (PCH) analysis (fluorescence fluctuation spectroscopy); light state: the same living HEK293T cells measured at once after 5 min of blue light (about 6 mW/cm^2 at the sample plane, 450-490 nm), one 30 s measurement a cell; HaloTag-JF646 fusions; brightness relative to the monomeric standard, corrected for 70% labelling; oligomer percent from a monomer-dimer (VfAuLOV) or monomer-tetramer (AtCRY2) model.

The target is the same in assay [17]. In words: photon counting histogram (PCH) analysis (fluorescence fluctuation spectroscopy); dark state; HaloTag fusions labelled with 200 nM JF646 in living HEK293T cells, UBC promoter, protomer about 50-1,700 nM; single-point measurement of 30 s, 20 kHz binning, 15 ns dead time, ambient temperature (22-23°C); brightness relative to the monomeric HaloTag standard and corrected for 70% labelling; population average; oligomer percent from a monomer-dimer (VfAuLOV) or monomer-tetramer (AtCRY2) model.

As to “HaloTag-AtCRY2(R439L) (domain or fragment)”, the oligomer percentage (tetramer fraction, monomer-tetramer model) in assay [1] and in assay [2] was below 1% in each case. Moreover, the relative brightness (corrected; monomer = 1, tetramer = 4) in assay [1] and in assay [2] was 1.1 each time.

What is called stoichiometry N is a count of units in the complex or per binding partner. Take “HaloTag-bZip-VfAuLOV: VfAuLOV with the basic residues and leucine zipper domain of Vaucheria frigida Aureochrome1, fused to HaloTag (domain or fragment)”: in assay [3], the oligomer percentage (dimer fraction, monomer-dimer model) came to 67%; the relative brightness (corrected; monomer = 1, dimer = 2) stood at 1.8; the stoichiometry N is 2. Besides, in [4], the dissociation half-life worked out at 6.89 min. In assay [5], this substance yielded an oligomer percentage (dimer fraction, monomer-dimer model) of 33% and a relative brightness (corrected; monomer = 1, dimer = 2) of 1.5.

Regarding “HaloTag-HsCRY2: human CRY2 photolyase homology region fused to HaloTag (domain or fragment)”, the figures for the relative brightness (corrected; monomer = 1) in [6] and in assay [7] were 1.3 and 1.2, respectively.

In [8], “HaloTag-VfAuLOV: light-oxygen-voltage (LOV) domain of Vaucheria frigida Aurochrome1 fused to HaloTag (domain or fragment)” displayed an oligomer percentage (dimer fraction, monomer-dimer model) of 100%; a relative brightness (corrected; monomer = 1, dimer = 2) of 2; a stoichiometry N of 2. Also, the dissociation half-life in assay [9] was found to be 8.73 min. Moreover, in assay [10], the oligomer percentage (dimer fraction, monomer-dimer model) amounted to 18% and the relative brightness (corrected; monomer = 1, dimer = 2) was determined as 1.3.

For the substance “HaloTag-AtCRY2(D387A) (domain or fragment)”, in assay [11], the oligomer percentage (tetramer fraction, monomer-tetramer model) was below 1% and the relative brightness (corrected; monomer = 1, tetramer = 4) was determined as 1.1. In [12], the oligomer percentage (tetramer fraction, monomer-tetramer model) was below 1% and the relative brightness (corrected; monomer = 1, tetramer = 4) was 1.1.

In [13], “HaloTag-AtCRY2: photolyase homology region of cryptochrome 2 from Arabidopsis thaliana fused to HaloTag (domain or fragment)” showed an oligomer percentage (tetramer fraction, monomer-tetramer model) of 27%; a relative brightness (corrected; monomer = 1, tetramer = 4) of 2.8; a stoichiometry N of 4. Besides, the dissociation half-life in assay [14] was determined as 4.29 min. For the same substance, in assay [15], the oligomer percentage (tetramer fraction, monomer-tetramer model) was below 1%; the oligomer percentage (tetramer fraction, monomer-tetramer model; only data above 500 nM) worked out at 1.8%; the relative brightness (corrected; monomer = 1, tetramer = 4) amounted to 1.1; the relative brightness (corrected; only data above 500 nM) was determined as 1.2.

For “HaloTag-AtCRY2(W374A) (domain or fragment)”, the oligomer percentage (tetramer fraction, monomer-tetramer model) in assay [16] is 20%; in assay [17], 5%. The results for the relative brightness (corrected; monomer = 1, tetramer = 4) in assay [16] and in assay [17] were 2.5 and 1.5, respectively.
